Reference: patent US20070207967A1, “Peptide Inhibitors of Matrix Metalloproteinase Activity” (CTT CANCER TARGETING TECHNOLOGIES OY, priority 2004, published 2007)

T1: MMP-9 C domain (Homo sapiens, UniProt P14780)
T1 construct: MMP-9 (Asp^494-Asp^688) were expressed as described (16); made in house; host or cells: E. coli (β5 fragment)
T1 sequence (P14780 513-707 limits assumed): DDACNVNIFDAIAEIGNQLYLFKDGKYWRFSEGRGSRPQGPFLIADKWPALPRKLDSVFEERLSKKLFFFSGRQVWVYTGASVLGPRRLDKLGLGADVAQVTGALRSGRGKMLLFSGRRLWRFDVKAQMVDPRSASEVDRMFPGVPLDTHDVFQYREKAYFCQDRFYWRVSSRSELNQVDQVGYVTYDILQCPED


How the values were obtained:
[1] = test system: HT1080 cells; assay: HT1080 cell adhesion to vitronectin or fibronectin; format: cell-based, human; conditions: proteins 40 μg/ml, CRV peptide 200 μM
Experimental: (§1) Cell adhesion. HT1080 cells were allowed to adhere on vitronectin or fibronectin (2 μg/ml) in the presence or absence of peptides (200 μM), proteins (40 μg/ml) or a monoclonal anti-αvβ5 integrin antibody P1F6 (Chemicon) or a control antibody (25 μg/ml). The adhesion was quantified as described (14). Adhesion of THP-1 cells to immobilized KIM127 or control monoclonal antibodies (2 μg/ml) was done in the presence or absence of soluble proteins (50 μg/ml) or antibodies (25 μg/ml).

[2] = test system: β5 integrin-transfected CS-1 melanoma cells; assay: 125I-C domain binding to cells; format: cell-based, hamster; conditions: for Competition of 125I-labelled MMP-9 C domain binding to β5 integrin-transfected CS-1 cells: unlabelled proteins 50 μg/ml, peptides 50 μM
Experimental: ^125I-C domain binding to cells. The MMP-9 C domain was labelled with ^125I to a specific activity 0.06 μCi/pmol. The labelled domain retained 40% of the CRV peptide-binding activity as shown by the phage-binding assay. […] After a preincubation of 1.5×10^6 cells in a 200 μl volume on ice for 30 min with the competitors, ^125I-labelled C domain (1×10^6 cpm) was added and incubated for three hours on ice. The cells were transferred to tubes containing 200 μl of dibutyl phthalate/cyclohexane mixture (23:2 vol/vol), centrifuged 7500×g for 10 minutes and snap-frozen (24). The bottom of the tube containing the cells were cut and analyzed with a gamma-counter.

[3] = test system: HT1080 fibrosarcoma; assay: HT1080 invasion through matrigel; format: cell-based, human; conditions: 50 μg/ml
Experimental: Cell migration and invasion. The cell migration assay was conducted using transwell migration chambers (8 μm pore size, Costar) in 10% serum-containing medium (2,14). Briefly, the membranes were coated on both sides with 40 μg/ml GST or with the β2 integrin ligand peptide […]-GST fusion (GST-LLG-C4) and blocked with complete medium. THP-1 cells (50 000/100 μl) were preincubated with the peptides for 1 h in serum-containing medium. The cells were allowed to migrate for 16 h and were then stained with crystal violet and counted (14). The HT1080 (20 000 cells/I100 μl) invasion assay was performed as the THP-1 migration, except that matrigel coated transwells (BD Biosciences) were used.

[4] = test system: THP-1 cells; assay: THP-1 cell binding to immobilized KIM127 antibody; format: cell-based, human
Experimental: as §1

[5] = test system: THP-1 cells; assay: THP-1 cell binding to antibody R3F9C; format: cell-based, human; conditions: not shown
Experimental: as §1

[6] = test system: MMP-9 CBD, vitronectin, β5 I-EGF2+3, C domain of MMP-2; assay: β5 I-EGF2+3 binding assay, other immobilized proteins
Experimental: (§2) B5 I-EGF2+3 binding assay. MMP-9 C domain, MMP-2 C domain, CBD, β5 I-EGF2+3 or vitronectin (2 μg/ml) were immobilized in microtiter wells. Biotinylated β5 I-EGF2+3 fragment (2.5 μg/ml) was added to the wells which were preincubated with the competitors for 30 min in 1% BSA-PBST and then incubated further for one hour. Bound biotinylated protein was detected with streptavidin-peroxidase.

[7] = molecular target: T1, MMP-9 C domain; assay: β5 I-EGF2+3 binding assay, MMP-9 C domain
Experimental: as §2

Molecule	Inhibition of HT1080 cell adhesion to vitronectin or fibronectin [1]	Competition of 125I-labelled MMP-9 C domain binding to β5 integrin-transfected CS-1 cells [2]	Inhibition of HT1080 invasion through matrigel by integrin and MMP domains [3]	further results
MMP-9 C domain: recombinant C-terminal hemopexin-like domain of MMP-9 (Asp494-Asp688) (protein) DDACNVNIFDAIAEIGNQLYLFKDGKYWRFSEGRGSRPQGPFLIADKWPALPRKLDSVFEERLSKKLFFFSGRQVWVYTGASVLGPRRLDKLGLGADVAQVTGALRSGRGKMLLFSGRRLWRFDVKAQMVDPRSASEVDRMFPGVPLDTHDVFQYREKAYFCQDRFYWRVSSRSELNQVDQVGYVTYDILQCPED	Neither	competed	inhibited HT1080 invasion with a similar potency	Binding of 125Iodine-labelled MMP-9 C domain to β5 integrin-transfected CS-1 cells ([2]; not to the untransfected cells): specific binding; Inhibition of THP-1 cell binding to KIM127 ([4]; 50 μg/ml): 40%; Effect on THP-1 binding to R3F9C [5]: no effect
β5 I-EGF2+3: integrin β5 I-EGF2+3 fragment (Glu476-Asn563) with N-terminal His6-tag (protein, left off: small tags and cut ends, integrin β5 I-EGF2+3 fragment (Glu476-Asn563) with N-terminal His6-tag) ECQDGENQSVYQNLCREAEGKPLCSGRGDCSCNQCSCFESEFGKIYGPFCECDNFSCARNKGVLCSGHGECHCGECKCHAGYIGDNCN	–	competed	inhibited HT1080 invasion with a similar potency	Binding of β5 I-EGF2+3 to MMP-9 CBD, vitronectin, itself or the C domain of MMP-2 [6]: did not bind; Competition of biotinylated β5 I-EGF2+3 binding to the MMP-9 C domain [7]: inhibited; Binding of biotinylated β5 I-EGF2+3 to the MMP-9 C domain ([7]; 2.5 μg/ml): specifically bound
CBD: recombinant collagen binding domain of MMP-9 (Gly204-Gly373) (protein) GNADGAACHFPFIFEGRSYSACTTDGRSDGLPWCSTTANYDTDDRFGFCPSERLYTQDGNADGKPCQFPFIFQGQSYSACTTDGRSDGYRWCATTANYDRDKLFGFCPTRADSTVMGGNSAGELCVFPFTFLGKEYSTCTSEGRGDGRLWCATTSNFDSDKKWGFCPDQG	–	–	–	Effect on THP-1 cell binding to immobilized KIM127 ([4]; proteins 50 μg/ml, antibodies 25 μg/ml): did not
MMP-2 C domain: recombinant C-terminal domain of MMP-2 (Glu438-Cys631) (protein) EICKQDIVFDGIAQIRGEIFFFKDRFIWRTVTPRDKPMGPLLVATFWPELPEKIDAVYEAPQEEKAVFFAGNEYWIYSASTLERGYPKPLTSLGLPPDVQRVDAAFNWSKNKKTYIFAGDKFWRYNEVKKKMDPGFPKLIADAWNAIPDNLDAVVDLQGGGHSYFFKGAYYLKLENQSLKSVKFGSIKSDWLGC	–	No competition	inhibited HT1080 invasion with a similar potency	–
pro-MMP-9-ΔHC: pro-MMP-9 lacking the hinge region and the C domain (protein) APRQRQSTLVLFPGDLRTNLTDRQLAEEYLYRYGYTRVAEMRGESKSLGPALLLLQKQLSLPETGELDSATLKAMRTPRCGVPDLGRFQTFEGDLKWHHHNITYWIQNYSEDLPRAVIDDAFARAFALWSAVTPLTFTRVYSRDADIVIQFGVAEHGDGYPFDGKDGLLAHAFPPGPGIQGDAHFDDDELWSLGKGVVVPTRFGNADGAACHFPFIFEGRSYSACTTDGRSDGLPWCSTTANYDTDDRFGFCPSERLYTQDGNADGKPCQFPFIFQGQSYSACTTDGRSDGYRWCATTANYDRDKLFGFCPTRADSTVMGGNSAGELCVFPFTFLGKEYSTCTSEGRGDGRLWCATTSNFDSDKKWGFCPDQGYSLFLVAAHEFGHALGLDHSSVPEALMYPMYRFTEGPPLHKDDVNGIRHLYG	Neither	–	–	–
